From paper PMC3142331 (2011)

Molecular target: T1, RNA polymerase II CTD tetraheptad CTD (UniProt P24928, CTD Ser5 phosphorylation)
T1 chain: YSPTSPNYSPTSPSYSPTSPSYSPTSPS
Assay: guanylyltransferase stimulation assay

Kd: 1500 nM
B1: Mce (protein)
chain: not shown
